From patent US20050282743A1, “Molecular interactions in cells” (Arbor Vita Corporation, priority 2001, published 2005)
Several values for one entry are separate records, joined by “and”; a condition that tells them apart may be missing. Equal values may be shown once.

Assays:
[1] = biological target: T1, GST-EZRIN Binding Protein 50 PDZ domain 2 (Homo sapiens (Human)), O14745; assay: G' assay; further: key of the grades not given here
T1 chain: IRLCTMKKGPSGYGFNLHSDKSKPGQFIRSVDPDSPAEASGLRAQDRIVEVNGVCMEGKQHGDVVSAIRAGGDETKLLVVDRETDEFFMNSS

[2] = biological target: T2, GST-AF6 PDZ domain 1 (Homo sapiens (Human)), P55196; assay: G' assay; further: key of the grades not given here
T2 chain: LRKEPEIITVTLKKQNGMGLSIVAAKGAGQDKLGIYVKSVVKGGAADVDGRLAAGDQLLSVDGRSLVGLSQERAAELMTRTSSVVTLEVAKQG

[3] = biological target: T3, GST-GRIP 1 PDZ domain 7 (Homo sapiens (Human)), Q9Y3R0; assay: G' assay; further: key of the grades not given here
T3 chain: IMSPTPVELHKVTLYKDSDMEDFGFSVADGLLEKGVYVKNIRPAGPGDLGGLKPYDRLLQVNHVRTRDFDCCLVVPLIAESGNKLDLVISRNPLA

[4] = biological target: T4, GST-KIAA0303 PDZ domain 1 (Homo sapiens (Human)), O15021; assay: G' assay; further: key of the grades not given here
T4 chain: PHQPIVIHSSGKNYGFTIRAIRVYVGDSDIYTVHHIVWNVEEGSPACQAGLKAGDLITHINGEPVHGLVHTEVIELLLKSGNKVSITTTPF

[5] = biological target: T5, GST-AIPC PDZ domain 4 (Homo sapiens (Human)), O15018; assay: G' assay; further: key of the grades not given here
T5 chain: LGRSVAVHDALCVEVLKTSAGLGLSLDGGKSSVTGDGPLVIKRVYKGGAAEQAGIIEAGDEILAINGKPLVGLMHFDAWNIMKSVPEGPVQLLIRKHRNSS

[6] = biological target: T6, GST-KIAA1719 PDZ domain 1 (Homo sapiens (Human)), Q9C0E4; assay: G' assay; further: key of the grades not given here
T6 chain: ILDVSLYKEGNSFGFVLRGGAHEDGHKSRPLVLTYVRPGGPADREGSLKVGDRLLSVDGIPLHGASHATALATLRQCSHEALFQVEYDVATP

[7] = biological target: T7, GST-MUPP1 PDZ domain 4 (Homo sapiens (Human)), O75970; assay: G' assay; further: key of the grades not given here
T7 chain: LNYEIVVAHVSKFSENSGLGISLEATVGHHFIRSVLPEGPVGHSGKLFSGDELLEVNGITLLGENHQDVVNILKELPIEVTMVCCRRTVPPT

[8] = biological target: T8, GST-SIP1 PDZ domain 2 (Homo sapiens (Human)), Q15599; assay: G' assay; further: key of the grades not given here
T8 chain: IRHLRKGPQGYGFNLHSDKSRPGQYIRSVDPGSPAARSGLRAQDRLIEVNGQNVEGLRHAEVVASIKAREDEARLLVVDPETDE

[9] = biological target: T9, GST-SYNTENIN PDZ domain 2 (Homo sapiens (Human)), O00560; assay: G' assay; further: key of the grades not given here
T9 chain: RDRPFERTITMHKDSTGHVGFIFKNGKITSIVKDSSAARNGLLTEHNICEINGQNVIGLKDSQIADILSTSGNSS

[10] = biological target: T10, GST-prIL16 PDZ domains 1, 2, Q14005; assay: G' assay; further: key of the grades not given here
T10 chain: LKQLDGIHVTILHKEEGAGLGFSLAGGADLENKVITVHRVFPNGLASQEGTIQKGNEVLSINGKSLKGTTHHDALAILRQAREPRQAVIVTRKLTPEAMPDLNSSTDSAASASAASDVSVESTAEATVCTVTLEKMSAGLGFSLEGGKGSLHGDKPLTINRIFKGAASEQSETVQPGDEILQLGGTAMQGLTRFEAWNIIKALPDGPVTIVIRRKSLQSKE

[11] = biological target: T11, GST-INADL PDZ domain 4 (Homo sapiens (Human)), Q8NI35; assay: G' assay; further: key of the grades not given here
T11 chain: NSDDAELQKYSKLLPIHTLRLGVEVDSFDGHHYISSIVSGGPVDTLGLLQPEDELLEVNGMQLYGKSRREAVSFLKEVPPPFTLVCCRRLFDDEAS

[12] = biological target: T12, GST-KIAA1719 PDZ domain 4 (Homo sapiens (Human)), Q9C0E4; assay: G' assay; further: key of the grades not given here
T12 chain: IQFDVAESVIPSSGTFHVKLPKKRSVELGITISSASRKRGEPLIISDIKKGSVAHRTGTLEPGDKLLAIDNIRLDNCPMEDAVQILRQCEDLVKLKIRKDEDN

[13] = biological target: T13, GST-ENIGMA PDZ domain 1 (Homo sapiens (Human)), Q9NR12; assay: G' assay; further: key of the grades not given here
T13 chain: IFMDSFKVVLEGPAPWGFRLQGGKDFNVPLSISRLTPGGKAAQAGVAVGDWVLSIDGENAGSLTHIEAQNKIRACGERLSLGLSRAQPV

[14] = biological target: T14, GST-LIM Protein PDZ domain 1 (Homo sapiens (Human)), Q96HC4; assay: G' assay; further: key of the grades not given here
T14 chain: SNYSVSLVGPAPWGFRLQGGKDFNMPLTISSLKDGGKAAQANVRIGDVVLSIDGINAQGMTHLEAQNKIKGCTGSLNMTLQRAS

[15] = biological target: T15, GST-PSD95 PDZ domain 2 (Homo sapiens); assay: G' assay; further: key of the grades not given here
T15 chain: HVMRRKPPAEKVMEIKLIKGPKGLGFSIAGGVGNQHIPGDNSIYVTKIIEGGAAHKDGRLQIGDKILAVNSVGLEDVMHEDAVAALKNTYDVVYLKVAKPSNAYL

[16] = biological target: GST-DLG1 PDZ domains 1, 2 (Homo sapiens), Q12959; assay: G assay titration, PDZ 0.1 ug/ml
[17] = biological target: T16, GST-TIP-1 (Example 3) (human), O14907; assay: G assay titration, PDZ 0.1 ug/ml
T16 chain: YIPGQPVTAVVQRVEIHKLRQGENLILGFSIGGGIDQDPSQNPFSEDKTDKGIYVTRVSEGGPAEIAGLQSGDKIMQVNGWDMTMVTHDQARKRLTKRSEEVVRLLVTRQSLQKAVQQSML

[18] = biological target: T17, GST-novel PDZ gene PDZ domain 2 (Homo sapiens (Human)), Q9H5P4; assay: G' assay; further: key of the grades not given here
T17 chain: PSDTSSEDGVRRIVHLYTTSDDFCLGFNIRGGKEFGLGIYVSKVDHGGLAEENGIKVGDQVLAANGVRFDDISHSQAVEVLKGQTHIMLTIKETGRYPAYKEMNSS

AWDDSARAAGGQGLHVTAL (modifications not checked) [LPAP]
Classification [1]: 4 A450 class

ELLQFCRTPNPALKNGQYWV (modifications not checked) [CSPG4 (chondroitin sulfae proteoglycan 4, melanoma-associated)]
Classification [2]: 5 A450 class | Classification [3]: 5 A450 class | Classification [4]: 1 A450 class

ILNSIQVMRAQMNQIQSVEV (modifications not checked) [ephrin B2]
Classification [5]: 1 A450 class | Classification [6]: 1 A450 class | Classification [7]: 1 A450 class | Classification [8]: 2 A450 class | Classification [9]: 2 A450 class | Classification [10]: 2 A450 class

HDFRRAFKKILARGDRKRIV (modifications not checked) [alpha-2A Adrenergic receptor]
Classification [11]: 1 A450 class | Classification [12]: 3 A450 class

VPGALDYAAFSSALYGESDL (modifications not checked) [a-actinin 2]
Classification [13]: 5 A450 class | Classification [14]: 4 A450 class

QISPGGLEPPSEKHFRETEV (modifications not checked) [TAX]
Classification [15]: 1 A450 class | Kd [16]: 200 nM and 130 nM | maximum OD (450 nm) [16]: 1.6 OD and 3.4 OD | Kd [17]: 5 nM and 6 nM | maximum OD (450 nm) [17]: 3.3 OD and 2.1 OD

PIPAGGCTFSGIFPTLTSPL (modifications not checked) [KIA 1481]
Classification [1]: 2 A450 class | Classification [18]: 1 A450 class
